In publication doi:10.1101/2021.08.25.457680:
Where no end group is shown, it is not given here.

Tests used:
[1] = biological target: hDLG1 PDZ1+2 tandem (human) (UniProt Q12959); assay: NMR titration
[2] = biological target: hDLG1 PDZ1 domain (human); assay: NMR titration
[3] = biological target: syntenin-1 PDZ1 domain (human); assay: NMR titration
[4] = biological target: syntenin-1 PDZ2 domain (human); assay: NMR titration
[5] = biological target: hDLG1 PDZ1 domain (human); assay: ITC
[6] = biological target: hDLG1 PDZ2 domain (human); assay: ITC
Sequence of hDLG1 PDZ2 domain (human) (Q12959 219-551): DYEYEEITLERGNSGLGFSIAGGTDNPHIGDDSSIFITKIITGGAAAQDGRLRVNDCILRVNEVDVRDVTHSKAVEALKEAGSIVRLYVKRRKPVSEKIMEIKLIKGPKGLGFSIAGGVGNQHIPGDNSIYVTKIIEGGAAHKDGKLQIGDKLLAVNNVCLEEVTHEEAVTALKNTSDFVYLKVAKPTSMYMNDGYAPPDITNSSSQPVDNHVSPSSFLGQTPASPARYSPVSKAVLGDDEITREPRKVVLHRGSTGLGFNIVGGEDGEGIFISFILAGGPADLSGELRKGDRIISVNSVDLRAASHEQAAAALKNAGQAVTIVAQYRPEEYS

Sequence of hDLG1 PDZ1 domain (human) (Q12959 219-551): as above
Sequence of syntenin-1 PDZ1 domain (human) (O00560 whole entry, the tested form may be a part): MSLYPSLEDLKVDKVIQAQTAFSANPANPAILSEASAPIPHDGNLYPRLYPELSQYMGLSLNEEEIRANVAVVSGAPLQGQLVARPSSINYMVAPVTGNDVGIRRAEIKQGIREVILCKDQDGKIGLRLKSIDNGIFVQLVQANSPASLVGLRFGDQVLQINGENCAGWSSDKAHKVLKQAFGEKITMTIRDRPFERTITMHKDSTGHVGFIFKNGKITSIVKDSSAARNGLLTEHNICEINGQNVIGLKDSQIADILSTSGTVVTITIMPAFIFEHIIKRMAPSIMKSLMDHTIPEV
Sequence of syntenin-1 PDZ2 domain (human) (O00560 whole entry, the tested form may be a part): as above

“Tax2 10mer peptide (last 10 amino acids of Tax-2)” gave a Kd [1] greater than 5 mM.

With SEKHFRETEV (not fully specified (C-terminus)) [C-terminally amidated Tax-1 10mer peptide (Tax-1mod)] the Kd [2] was 951 µM.

With SEKHFRETEV [Tax-1 10mer peptide (last 10 C-terminal amino acids of Tax-1)] the Kd [3] was 2.58 mM, the Kd [4] was 1.55 mM and the Kd [5] was 2700 nM. It also gave a dH [5] of -8 kcal/mol, a stoichiometry N [5] of 1.03 and a Kd [6] of 900 nM. For the same molecule, the dH [6] was -10.4 kcal/mol and the stoichiometry N [6] was 0.99.
